Measurements published in US6994976.

Molecular target: mouse TR3 (mouse) (UniProt Q925D8)
Assay: flow cytometry on ConA-activated murine CD8+ T-cells, control stain

Sequence of UniProt Q925D8 (Q925D8 whole entry): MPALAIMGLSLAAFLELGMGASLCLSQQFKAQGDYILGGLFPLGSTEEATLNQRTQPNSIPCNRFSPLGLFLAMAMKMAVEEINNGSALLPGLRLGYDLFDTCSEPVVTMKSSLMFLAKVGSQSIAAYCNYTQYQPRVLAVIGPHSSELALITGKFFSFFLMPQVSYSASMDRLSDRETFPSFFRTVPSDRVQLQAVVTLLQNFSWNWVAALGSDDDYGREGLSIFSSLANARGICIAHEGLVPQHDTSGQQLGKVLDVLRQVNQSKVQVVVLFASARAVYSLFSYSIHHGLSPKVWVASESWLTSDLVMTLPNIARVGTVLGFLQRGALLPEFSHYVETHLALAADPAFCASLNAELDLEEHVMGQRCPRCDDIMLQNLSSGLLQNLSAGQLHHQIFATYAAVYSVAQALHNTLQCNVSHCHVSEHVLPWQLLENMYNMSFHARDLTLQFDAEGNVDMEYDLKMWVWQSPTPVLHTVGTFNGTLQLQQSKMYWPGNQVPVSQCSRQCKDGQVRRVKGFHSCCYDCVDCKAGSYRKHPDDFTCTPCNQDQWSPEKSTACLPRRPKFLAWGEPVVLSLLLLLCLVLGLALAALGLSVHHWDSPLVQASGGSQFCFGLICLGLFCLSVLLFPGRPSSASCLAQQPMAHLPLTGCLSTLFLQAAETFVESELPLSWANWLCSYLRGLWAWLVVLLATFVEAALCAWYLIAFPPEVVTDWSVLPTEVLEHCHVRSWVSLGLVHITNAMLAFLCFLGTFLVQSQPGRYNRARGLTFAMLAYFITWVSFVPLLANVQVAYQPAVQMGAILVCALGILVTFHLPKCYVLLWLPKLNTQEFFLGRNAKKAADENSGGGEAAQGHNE

Substance: normal (non-immune) rat serum (antibody)
- percent of cells within the marker-1 (M1, unstained) region: 99%
